The source of these data is the domain aggregation screens of Martell et al. (2025).
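Also: 20 min heating vs room temperature control held 20 min.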

The nature of the data set: soluble fraction after stress (log2 fold change); higher = more stays soluble; pooled small domains, quantitative proteomics. The conditions noted are these: stress: 75 degC.
As for “HMDDGLTRLTPRENEVLELMAQGRSNTAIAERLVLSYGAVEKNVSSIFTKLDLPLDAGDHRRVLAVLRRLN”, the “soluble fraction (log2)” value was -0.668.
To “HMDDGNHTEYIVLEKAKFYDEAGEYEEGRDLVLSFDKYQDNWKLVYTLGVFNKKLNNLEEARKYYKQALE” belongs -0.0263; to “HMDDHKQHLIDFYHSRKRMPTYTEMMALFGYKSKNAVARLVEKMIDAGIVTKDKLGKLLPTTLFDSVPL”, -0.00288.
To “HMDDHLRLSDNERISAMSALATHFTEGRLDTSEFDERTLAASQAKSRGDLRPLFDDLPGQLPAALSP” belongs 0.0298.
The value for “HMDDKLKKLEEVFEMQEGTLTPDMRLDELEEWDSMTRLSLIVMMEDDYGKKVKRSEVMNYTTVQDIVDSME” was -0.0532; that for “HMDDLSPEENKVIGAQVREELARRRLSRQHLADKAKISLSTLEKALTGTRPFTLASVVRIEEALQLQLRK” was -1.35; that for “HMDDPEISQEQRQQLFRTAKEHFGASGNDVLKEILADHGRDSTVKMPVSVFAEIMGDLLKRALD” was 0.612.
For “HMDDPQAELLARAVRRVALAAAERTRRNEYGGVYLGLFRQFGISSYRRTPPARLHEALEWLERWRGDLM”, the “soluble fraction (log2)” value was -0.134.
Take “HMDDTVILPIQINGKRRAEISVPKAMPASEVEKLALANEDVLRFLAGQPIKKLIVVPGRIINVV”: the “soluble fraction (log2)” value came to 0.0584.
As for “HMDDVGERIRKIREEKNLSLDEISKMTGFDVEFLAKIENKERQPQLGTVIKLSKALDSAFGRL”, the “soluble fraction (log2)” value was 0.162.
Consider “HMDDVGYLRKRLQQALAQLSDDLRNTYTLFQIGKQSIKQIAAETGASESLVKVRIHRAKQKLQELLADLQ”, for which the “soluble fraction (log2)” value was -1.47.
The value for “HMDEDLQEALRKLNPIQANERKLLLKMLEQHRWNVSSVAKAFDVSRNTLYRRLHKLHIPLSNPSE” was -1.33; that for “HMDEEAIELTQEVMKLPPKQREVILLYYYHGLTGKEIAKALGISGAAVSKRLKQAKNQLHFALK” was -0.282.
As to “HMDEEVLVVQEGGERLDVFVAANAEGITRSFVQNLIKKGDVTVDGAPRKANYRLRSGQVVRFSLPEP”, the “soluble fraction (log2)” value was -0.204.
To “HMDEFEEGVITYFNSEKGFGFIRESKTKQSVFVHSKQLSSPVQLNDKVKFIVNKGLKGLEATEVSVI” belongs -0.818; to “HMDEFQLTPREQEILGLLVKGYTYKRIASELNLSYATVNRHVSNVYVKLRVHSVNEAVALAVRKGL”, -1.39.
The value for “HMDEKLAHKLVSDFRQAAASLERFPFRNPVLRSEVFTVEKYRKLVFDKYHILLYQVKDQVVYVEYVIDGRQ” was -0.94.
For the sequence “HMDEKVTIPSVSGLLLSEAKTKLVDAGLTVETVYDDESKEAKDTVLSQSPLQYGKVDKGTVVTLTVSSGKG”, the “soluble fraction (log2)” value was determined as 0.332.
The value for “HMDELPKDILRSFGLPDKPWAMELLRNLRRDGFALDGETARAYAEMAAMKPPRTDARQWMTAADVAYRRG” was -0.343; that for “HMDEMPVEFVKISIKAGHPWENRKIKDLASLPDLLLVLILRGEERIIPNGNTVVLAGDKIVLSALSPE” was -2.74.
The value for “HMDENILKTRIEDLDLSVRTIKALTGASIRTVSGLARKKESDLLEISGLGDKGIQEIKRALGSLGITL” was -0.498; that for “HMDENTEQESQTVVVPDVTGKSLSEAASILREAGLDYLAEQTGTVVTKQMPLPDAEVLINTTVLLYTDSE” was 0.143.
To “HMDEPSITYGKVKVQTSLNVRQGPGTQYARIGSLGPNVRIQILGQEGQWYKIKYGNLQGYVHSDYVELEK” belongs -0.026; to “HMDEQKNREIALIENIQREDLNPYEKALGIRNLMDKYGLTQEEVSKRIGKSRSAVSNTVRILNLAPDVL”, 0.125; to “HMDEQLAWLYRKINAFSEIDKALILLYLEDKKYDEIAETLGISSVNARVKMNRIKKRLKEMINDR”, -3.14.
With “HMDEQVETLKNLISELPKEQLEVLVMRHYEDLSFKEISEKTGVSINTALGRMRYALINIRKLMKENN”, the “soluble fraction (log2)” value was -0.145.
The value for “HMDESLIEEAKAMILQMKIEGSVRVRSNGLLEFRNPLFGSVYGRSVEELQEKLNKKVREQKSRI” was -0.443; that for “HMDEVPMPPEYQYLRVGSRVHHATFGWGKVTRLSQPWPQTRAEVFFENIGPKKLVLAHAHLTMD” was -3.26.
With “HMDEYTAVDSRLDLELAMKRLKPEEAEVLRLVFDYGLPQRAIAERLGVSQMSVSRMQRRAIGKLKRWLSDN”, the “soluble fraction (log2)” value was -1.43.
The value for “HMDFKKKIIESWADIAETLRGLTVDSNISDWTTKQKNAYETLADKAELAGLSIADLNSILVELGYM” was -0.119; that for “HMDFNDPTMEKSLVELPAMSNSTLRDLSENNIKKLEELAEMSVGELMDIASKISESDASALIMEARKPWF” was -0.312.
To “HMDFRVGVWVELVQQRRSVRTQLTWVSPQHTLFLFTAKDGSTQSMTLRMRDKLLAEGNLRIVAPPSR” belongs -2.37; to “HMDFSENEPVTVRVLSILKNNTIRIAVKGAVLQAQTALSQDIREGAFLLMRVHITDNTVVLTPY”, 0.112; to “HMDFSNVNFSQVSDSELDLLMRRASAQGYTQFDLLKIARAQGLTQAEIEKLDKRFKSAETVAYVAENA”, 0.0531.
To “HMDFTHFTLKQDGKFAGSSNLLHQAVIAAARLAAETGKPVTVMAHVRGGGTRKAVFNPDGTNDKIWN” belongs -1.05; to “HMDGAPVTVIKNGEVDVATTMRVGLSASELMFKLRAAGVDEVQIVHRAVLEQNGQLTIIKYGEE”, -2.03; to “HMDGASVQRITELTATLNRYRHEYYNLAKPSVSDAVYDRLFDELAALEQKTGIVLSNSPTQTV”, -0.326.
On to “HMDGFVFVMPIKETRMFSVNDERPLVGIVKYSNGEFEKEQLIGFRPNSEYEFIIEGQRLYRVPVNSITIK”, for which the “soluble fraction (log2)” value is -1.08.
To “HMDGIRLYPGLMIEHKNFGRGQVVSVNRERGTFTAFFGKNGTRTLTIQILKTDTVRPLASQKAGK” belongs -0.594; to “HMDGKPSLIISNGQINYKEMVKLRYSLEDLLFQLRQNSIKSIEEVEYAFLESNGKLSIFPYNFL”, -2.53.
Regarding “HMDGLGLGAVILAQRKRQGWTQEDLAARIGVSKGAVSKWETGQSYPDLPLVPRLAALFHITVDELLDYR”, the “soluble fraction (log2)” value is -2.35.
In the case of “HMDGLIRLNKLLATLGVESRRHAEEMIIAGRITVDGVTATEKGQKVRRGAVIKVDGVEVGPPP”, the “soluble fraction (log2)” value was -0.581.
To “HMDGQPQLLIKNGQLLVSTALKNGMSANDLMFRLRTEGITDIRYVKRAVLEQNGQLTITQVGDD” belongs -0.622; to “HMDGVTEYTVKSGDSFSAIINKHYNVNYDEKLMQAVAAYNNIEDMNKLQLGQIIKLPPKEQLNL”, -0.0462; to “HMDGYVPAERIASEVGVSARTITREMHGLEMTLMPYGIALLRRTGAGFMLAGTAKALADLRKHMTEDADTQ”, 0.134.
The value for “HMDHAHWEEHEVKLLLTLAIQEKEKFNWNQFGLTREGWRNIYPHFPQYSRKQINNKFDFLKQKYRAWKDS” was -1.8.
The value for “HMDHAVINSEEVTIKDLSEKIGVSAAEIIKALFTEGIIKTINDKIEYEYAQYVAGMFGVELTLKL” was 0.357; that for “HMDIANEQEQIFITAMRNDDFNPILELKMKGYQPSKNVLKSLQPDVSSTTFIAAAKIFQMEGVL” was -1; that for “HMDIASNQIQGIKDSVGGDENYSKMVAWALESLPAEEVKAFNDLTETANAPAIKMAVQGLYSQYNNAM” was 0.195.
For the sequence “HMDIDGVSENGRLILAALDKEALDFDTLAAETGIQESRLRTELTLLEIRKLIMKLPGQRYRLI”, the “soluble fraction (log2)” value was -2.39.
To “HMDIDNDIIENILVMGVTKAIAINLSNEFERHRIIANIEYAKEKSKNSEIKNISAFTVEAIRQDYANS” belongs -1.34.
The value for “HMDIEITIPPEAKELDVSKILISGNIITDEQEFLDYLKQNNVAAFKDGNYKLNKNMTTEEIVNQIK” was 0.691.
Consider “HMDIESREAWVDASGMGVRLDRWLTQLAPEFSRNHLQSLIERGAVRVDGQPALVASRKLRIGQQVAVSLIP”, for which the “soluble fraction (log2)” value is -1.31.
Consider “HMDIEVEVPNLVGMSLDEAKSIIQSMGLVVGLTIEDPSAKVSDNSVTKQKPTYQTGVKLRSGDMIDIWYAG”, for which the “soluble fraction (log2)” value was -0.659.
To “HMDIFSSFVAIKNANVRELPTAKSAQVATLSKGSEVTALGKVKGKNWYLVARDGKELGYVFGSLIAEAET” belongs -1.56; to “HMDIINLADNIARLRRRRQITQEELADYLGVTKAAVSKWENRQTMPDILLLPRLAGLFEVTIDELVGY”, -2.19.
The value for “HMDIKDRSGVTIDESNEAQQESIIRESWAEQKISGNVDNYIAYLKANGMLLETAKIELAALQEKDASLRE” was 0.774.
Take “HMDILEVLIKKDLAMELLEQLTERQRTVVYLRYFYQLNQKEIADYLGISQQRVSEILSRAKAVLTAYTKK”: the “soluble fraction (log2)” value is -3.
In the case of “HMDILPEGNYKVNYDVIDEVGNIVANKNDIVVTEKSIKPLNTILGIDLYEVIHSQTGKYFTINGDNLTN”, the “soluble fraction (log2)” value is -0.0277.
As to “HMDINLGIGPLVKKYRTIKGYSIRELARNINVTASMLSQIERDIVNPSINTLKAISVELGVPMYKFFM”, the “soluble fraction (log2)” value is -2.38.
The value for “HMDINLSENLVRLRHAKKLTQEQLADFLGVTKASVSKWETRQSLPDILLLPRLAAFYGVTVDELIGYEP” was -1.81; that for “HMDISKTLGKNPLLIIDNIEYRGKTLDEITAMTGVKRFENIDIYGSEEAMKTYGEKAKDGVIIAYTT” was 0.0575; that for “HMDITGIGIKKRIKAIIDSEDKKNPLSDTQIVEILKNEGLEISRRTVAKYRSDLQIPSSSKRKK” was 0.143.
To “HMDIVEIYVGEEDGERIDSYLAQELNNVSRSYVQGLIKNQLITVNGNHVKPKHIVKEGEHIIVNIPPPKV” belongs -0.0948; to “HMDIVENSMPNVVGLELNRAKELMTQLGFTNVRYEPTESSRPENEVVYQSVDKDETLDVSSEIIIQYSSGV”, 0.0628; to “HMDKEKLQEKLLQIFEAEPQKKFQVQDLVKVLDMEGAGQFKFVVQALADLEHNKQIKLSEDDTFSLIVKE”, -0.173.
For the sequence “HMDKENVLQLQKDLLRLSVNALEKRYYQFSDILLLKYILPLVPKEISIDDQSRLRSLLSGIN”, the “soluble fraction (log2)” value is -0.538.
For “HMDKEPTHLHTFRLIKEGKSSEEIAEIRNITLGTVNTHLAKLIAVGELTIEQVISKHRLDYVMEAIKNSK”, the “soluble fraction (log2)” value came out at 0.176.
The value for “HMDKKIVGVNAGKVWQALNEVTEISIVELAEKLNLSVESTALAAGWLAREDQISIERKNGTIELQRKN” was -0.91; that for “HMDKNNLLIIYRTNSEGTPYAFSVTPSAKSLDALHKDAKEMLPFLEKSMNNFFSIQIWERAEYLKY” was -0.785.
